Values of other authors in PMC5593754.

Target: Glu97 (UniProt position 97, WARMAEWLCTC)
Assay: UV-vis
Details: unphotolyzed (dark) state, protonated Schiff base

Substance: Anion channelrhodopsin 1 (GtACR1) S97E mutant (Guillardia theta; S97E)
- pKa: ∼8
